Assay results: article PMC4623604, “Discovery of Small Molecules that Inhibit the Disordered Protein, p27^Kip1” (Scientific Reports, 2015)
Where no end group is shown, it is not given here.

Biological target: Cdk2/cyclin A complex (human, UniProt P24941 1-298; P20248 173-432)
Test: fluorescence polarisation; fluorescence anisotropy; Cdk2/cyclin A binding to p27-D2-FL (20 nM); 25 °C; 20 mM Na phosphate, pH 7, 200 mM NaCl, 3.5 mM TCEP; non-linear regression on the average of three experiments
Conditions: both partners purified

Kd: 73 ± 8 nM
B1: p27-D2-FL (p27-D2-C99S-R93C labeled with Alexa Fluor 488) (domain or fragment)
chain: RKWNFDFQNHKPLEGKYEWQEVEKGSLPEFYYRPPC(Alexa Fluor 488 C5‑maleimide)PPKGASKVPAQE
notes: p27Kip1 (p27; CDKN1B), human, D2 sub-domain construct, residues 58-105; Cloned in pET28a; also called single-cysteine mutant of p27-D2; source: conjugated with Alexa Fluor488-C5-Maleimide and purified again by HPLC; not shown: 6xHis, N-terminal, cleaved
